Results on one substance are retold here after patent US12297265B2, “Antibody and use thereof” (SICHUAN KELUN-BIOTECH BIOPHARMACEUTICAL CO., LTD., priority 2018, dated 2025).

Data set [1] has as its system Ba/F3-Claudin 18.2 cells. The data set can be described thus: ADCC activity on Ba/F3-Claudin 18.2 cells (NK-92MI_mCD16, CytoTox-Glo). Type of data set: cell-based. The note with it: Ba/F3-Claudin 18.2 target cells, NK-92MI_mCD16 effector cells, 6h. On the procedure: In order to evaluate the ADCC activity, ten thousand Ba/F3-Claudin18.2 cells were cultured in 40 μl NK-92 media. Antibodies were serially diluted in 10 μl PBS. Fifty thousand NK-92MI_mCD16 cells in 50 μl NK-92 media were added and the reactions were incubated at 37° C. for 6h. 33.3 μl CytoTox-Glo (Promega, G9290) was added to each reaction […].

Data set [2] deals with HEK293T-Claudin 18.2 cells. The data set can be described thus: NK cell mediated ADCC on HEK293T-Claudin 18.2 cells (LDH). It counts as cell-based. The settings on record: HEK293T-Claudin 18.2 target cells. Here is the method: (§1) The steps were as follows: HEK293T-Claudin 18.2, L929-Claudin 18.2, KATOIII-Claudin 18.2 and NUGC-4 cells were harvested and centrifuged followed by adjustment of cell density. 1×10^4/well of cells were plated on a plate and incubated overnight. The medium was removed on the next day. NK92MI-CD16a cells (Huabo Biopharm) were centrifuged, resuspended in MEMA medium and adjusted to 1×10^6/mL, then 50 μL/well cells were added to the corresponding wells. […] For HEK293T-Claudin18.2, L929-Claudin18.2 and KATOIII-Claudin18.2 cells, ten antibody concentrations were tested, starting from 40 μg/mL with 5-fold dilution. For NUGC-4 cells, eleven antibody concentrations were tested, starting from 2 mg/mL with 5-fold dilution. 50 μL/well of the diluted antibodies were added to the corresponding wells and the reactions were left to stand in incubator at 37° C., 5% CO2 and incubated for 5.5h. Lysis buffer was then added to the positive control well and incubated for another 0.5h. 50 μL/well of Lactate Dehydrogenase (LDH) detection agent (DOJINDO LABORATORISE, CK12) were added to the wells and the absorbance at 490 nm were taken every 10 min on a plate reader (MD, SpectraMax M2). The results were imported into Graphpad Prism for curve fitting.
The cell used was HEK293T-Claudin 18.2. The ADCC activity of antibody 2C6.9-hz21 on HEK293T-Claudin 18.2 is stronger than that of IMAB362.

Data set [3] concerns KATOIII-Claudin 18.2 cells. The data set can be described thus: NK cell mediated ADCC on KATOIII-Claudin 18.2 cells (LDH). Type of data set: cell-based. The note with it: KATOIII-Claudin 18.2 target cells, NK92MI-CD16a effector cells. Here is the method:
as §1

Data set [4] addresses T1, human Claudin18.2 (Homo sapiens, UniProt P56856). The data set can be described thus: Cellular ELISA on NUGC-4 cells. Type of data set: binding. Also noted: cell lines endogenously expressing human Claudin18.2; host or cells: NUGC-4 human gastric cancer cell line. On the procedure:
Human Claudin18.2 is a four transmembrane protein and has a complex structure. Cellular ELISA was thus carried out to maintain the structure of Claudin18.2. The stable cell line L929-Claudin 18.2 constructed in Example 1 were used for detection. Specifically, L929-Claudin 18.2 adherent cells were detached by 2 mM EDTA treatment. The cells were resuspended and adjusted to 2×10^5/mL and 100 μL of the resuspension was plated into 96 well plate and incubated overnight at 37° C. The next day, the media was removed, and the plate was washed with PBS once. 100 μL/well 4% formaldehyde was added to the plate. After 30 min of incubation at room temperature, formaldehyde was removed, followed by washing twice with PBS. […] The absorbance at 450 nm was read on a plate reader (MD, SpectraMax M2) and the results were subjected to curve fitting by Graphpad Prism.
To determine binding affinity of the candidate antibodies to cell lines endogenously expressing human Claudin18.2, FACS analysis was performed to detect human Claudin18.2 expression level on NUGC-4 cells (purchased from Japan JCRB cell bank, catalog number: JCRB0834) which endogenously expresses human Claudin18.2. […] The binding affinity between candidate antibodies and NUGC-4 cells was then determined by Cellular ELISA following the same protocol as above.

In data set [5] the target is T1, human Claudin18.2. The data set can be described thus: FACS affinity of chimeric antibodies to Ba/F3-Claudin18.2 cells. Type of data set: binding. Also noted: expressed in transfected cells; host or cells: Ba/F3 (BaF/3, DSMZ ACC300), hygromycin-selected monoclonal line. The source says:
The amino acid sequence of the light chain variable region of 1E9.2, 2C6.9, 6B9.22, 9C8.1, 16A9.11, 19G10.14 or 19H11.6 was linked to the amino acid sequence of the light chain constant region κ (SEQ ID NO: 43) respectively; the amino acid sequence of the heavy chain variable region was linked to the amino acid sequence of IgG1 heavy chain constant region (SEQ ID NO: 42) respectively, to construct the chimeric antibody. Codon optimized cDNA was synthesized and cloned to pcDNA3.4 (synthesized by Nanjing Genscript Biotech Corporation). The pcDNA3.4 plasmids coding the light chain and heavy chain of each antibody were co-transfected to Expi293F cells (purchased from Thermo Fisher). The antibodies were purified from culture supernatant by protein A (MabSelect SuRe, GE). And the purified chimeric antibodies were named 1E9.2-hz00, 2C6.9-hz00, 6B9.22-hz00, 9C8.1-hz00, 16A9.11-hz00, 19G10.14-hz00 and 19H11.6-hz00.
The affinity of the anti-Claudin18.2 chimeric antibodies to Ba/F3-Claudin18.2 cells were determined. […] The cells were then analyzed by FACS.

Marks after values point to notes of the source that are not given here.

On to “IMAB362: Zolbetuximab (IMAB362) developed by Astellas, human-mouse chimeric IgG1 antibody targeting Claudin 18.2; control antibody, sequences from CN 101312989 B [reference compound]”, for which the “ADCC EC50” value in data set [1] was 0.351* μg/mL. For the same substance, in data set [1], the Max killing rate was 54.17* %. Also, the “Max. Cytotoxicity” value came to 55% in data set [2] (NK92MI-CD16a effector cells, Table 13) and 49% in data set [3]. Further, the “Max Cytotoxicity” value in data set [2] (Table 14 experiment) is given as 20%. The “OD450 (Max signal value)” value in data set [4] is “Not detected”. In addition, the “Max MFI” value in data set [5] is on record as 8.97 ×10^6.
